Experimental data published in paper PMC12436594.

Target: PvLDH (lactate dehydrogenase) (Plasmodium vivax) (UniProt Q4PRK9)
Assay: flow cytometry (Ni-NTA beads)
[1] = dUCOTc replaces every T after the 20-nt forward primer

Row | Sequence | Kd [1] | Kd (dUCOTc (COT-carboxylate-modified dU) replaces every T after the 20-nt forward primer)
1 | CACTCACGTCAGTGACATGCCAAGCGAAGTTGTGCGCCCGCGTCGTGGTCGTCAGAAATTTCGCACCAC [N5 COTc aptamer] | 14.4 nM | 
2 | CACTCACGTCAGTGACATGCAGGTCCTCTCGCCCCCAGTGACTTGCGTGGTCAGAAATTTCGCACCAC [N15 COTc aptamer] | 5.6 nM | 
3 | CACTCACGTCAGTGACATGCGCATTACGCAGCGCTGCGCAGCGAGTACCGGTCAGAAATTTCGCACCAC [N0 COTc aptamer] |  | 3.7 nM
